Columns and labels:
[1] = Analytical size exclusion chromatography of XTEN fusion proteins; format: physicochemical; conditions: for Apparent MW: SEC, calibrated with globular protein standards; for Apparent Molecular Weight Factor: apparent MW relative to actual MW; for RH: hydrodynamic radius from SEC
Experimental: Size exclusion chromatography analyses were performed on fusion proteins containing various therapeutic proteins and unstructured recombinant proteins of increasing length. […] Chromatogram profiles were monitored using OD214 nm and OD280 nm Column calibration for all assays were performed using a size exclusion calibration standard from BioRad; the markers include thyroglobulin (670 kDa), bovine gamma-globulin (158 kDa), chicken ovalbumin (44 kDa), equine myoglobuin (17 kDa) and vitamin B12 (1.35 kDa). […] Based on the SEC analyses for all constructs evaluated, including a […] composition, the apparent molecular weights, the apparent molecular weight factor (expressed as the ratio of apparent molecular weight to the calculated molecular weight) and the hydrodynamic radius (RH in nm) are shown in Table 16.

[2] = tested on: activation of factor X; assay: Chromogenix Coamatic Factor VIII activity assay; format: biochemical
From the text: BDD FVIII and FVIII-XTEN fusion protein constructs pBC0114, pBC0135, pBC0136, pBC0137, pBC0145, pBC0146, and pBC0149, in various configurations, including XTEN_AE288 and AG288 inserted at the C-terminus of the FVIII BDD sequence and FVIII-XTEN fusion proteins with AE42 and AE288 inserted after residue 745 (or residue 743) and before residue 1640 (or residue 1638) of the B-domain […], were expressed in transiently transfected Freestyle 293 cells, as described above, and tested for procoagulant activity. […] The assay was performed according to manufacturer's instructions using the end-point method, which was measured spectrophotometrically at OD405 nm A standard curve was created using purified FVIII protein at concentrations of 250, 200, 150, 100, 75, 50, 37.5, 25, 12.5, 6.25, 3.125 and 1.56 mU/ml. […] The cell culture media of the FVIII-XTEN constructs were obtained as described, above, and were tested in replicates at 1:50, 1:150, and 1:450 dilutions and the activity of each was calculated in U/ml.
Using the Chromogenix Coamatic Factor VIII (Chromogenix, cat#82258563) the activity of FVIII is assessed as follows. […] The color is then read spectrophotometrically at 405 nm The generated factor Xa and thus the intensity of color is proportional to the factor VIII activity in the sample. […]

[3] = tested on: FVIII activity; assay: Two-stage chromogenic FVIII activity assay of transient transfection cell culture supernatant; format: biochemical; conditions: HEK293 cell culture supernatant, 5-day transient transfection
Experimental: Two FVIII-XTEN fusion proteins, FVIII-AE288 (F8X-40) and FVIII-AG288 (F8X-41), contain an AE288 XTEN or an […] XTEN, respectively, fused at the C-terminus of FVIII C2 domain. To determine if FVIII activity was retained after XTEN fusion, HEK293 cells were transfected separately with these two FVIII-XTEN fusion constructs by using polyethylenimine (PEI) in serum-free medium. At 3 or 5 days post-transfection, the cell culture supernatant was tested for FVIII activity by a two-stage chromogenic assay. Purified recombinant FVIII, calibrated against WHO international standard, was used to establish the standard curve in the chromogeinic assay. […] (Table 26).

| Molecule | Apparent MW [1] [kDa] | Apparent Molecular Weight Factor [1] | RH [1] [nm] | Specific Activity ([2]; activity (Chromogenix) per concentration (ELISA)) [IU/mg] | Activity ([2]; cell culture medium of transiently transfected Freestyle 293 cells, Chromogenix Coamatic Factor VIII assay) [IU/ml] | FVIII activity ([3]; Sample A) [IU/ml] | FVIII activity ([3]; Sample B) [IU/ml] |
| --- | --- | --- | --- | --- | --- | --- | --- |
| AC404 (protein) AVFVTQEEAHGVLHRRRRANAFLEELRPGSLERECKEEQCSFEEAREIFKDAERTKLFWISYSDGDQCASSPCQNGGSCKDQLQSYICFCLPAFEGRNCETHKDDQLICVNENGGCEQYCSDHTGTKRSCRCHEGYSLLADGVSCTPTVEYPCGKIPILEKRNASKPQGRIVGGKVCPKGECPWQVLLLVNGAQLCGGTLINTIWVVSAAHCFDKIKNWRNLIAVLGEHDLSEHDGDEQSRRVAQVIIPSTYVPGTTNHDIALLRLHQPVVLTDHVVPLCLPERTFSERTLAFVRFSLVSGWGQLLDRGATALELMVLNVPRLMTQDCLQQSRKVGDSPNITEYMFCAGYSDGSKDSCKGDSGGPHATHYRGTWYLTGIVSWGQGCATVGHFGVYTRVSQYIEWLQKLMRSEPRPGVLLRAPFPGSPGSPAGSPTSTEEGTSESATPESGPGTSTEPSEGSAPGSPAGSPTSTEEGTSTEPSEGSAPGTSTEPSEGSAPGTSESATPESGPGSEPATSGSETPGSEPATSGSETPGSPAGSPTSTEEGTSESATPESGPGTSTEPSEGSAPGTSTEPSEGSAPGSPAGSPTSTEEGTSTEPSEGSAPGTSTEPSEGSAPGTSESATPESGPGTSTEPSEGSAPGTSESATPESGPGSEPATSGSETPGTSTEPSEGSAPGTSTEPSEGSAPGTSESATPESGPGTSESATPESGPGSPAGSPTSTEEGTSESATPESGPGSEPATSGSETPGTSESATPESGPGTSTEPSEGSAPGTSTEPSEGSAPGTSTEPSEGSAPGTSTEPSEGSAPGTSTEPSEGSAPGTSTEPSEGSAPGSPAGSPTSTEEGTSTEPSEGSAPGTSESATPESGPGSEPATSGSETPGTSESATPESGPGSEPATSGSETPGTSESATPESGPGTSTEPSEGSAPGTSESATPESGPGSPAGSPTSTEEGSPAGSPTSTEEGSPAGSPTSTEEGTSESATPESGPGTSTEPSEGSAPGTSESATPESGPGSEPATSGSETPGTSESATPESGPGSEPATSGSETPGTSESATPESGPGTSTEPSEGSAPGSPAGSPTSTEEGTSESATPESGPGSEPATSGSETPGTSESATPESGPGSPAGSPTSTEEGSPAGSPTSTEEGTSTEPSEGSAPGTSESATPESGPGTSESATPESGPGTSESATPESGPGSEPATSGSETPGSEPATSGSETPGSPAGSPTSTEEGTSTEPSEGSAPGTSTEPSEGSAPGSEPATSGSETPGTSESATPESGPGTSTEPSEGSAPGSSS | 1900 | 14.7 | 10.1 | – | – | – | – |
| AC398 (protein) AVFVTQEEAHGVLHRRRRANAFLEELRPGSLERECKEEQCSFEEAREIFKDAERTKLFWISYSDGDQCASSPCQNGGSCKDQLQSYICFCLPAFEGRNCETHKDDQLICVNENGGCEQYCSDHTGTKRSCRCHEGYSLLADGVSCTPTVEYPCGKIPILEKRNASKPQGRIVGGKVCPKGECPWQVLLLVNGAQLCGGTLINTIWVVSAAHCFDKIKNWRNLIAVLGEHDLSEHDGDEQSRRVAQVIIPSTYVPGTTNHDIALLRLHQPVVLTDHVVPLCLPERTFSERTLAFVRFSLVSGWGQLLDRGATALELMVLNVPRLMTQDCLQQSRKVGDSPNITEYMFCAGYSDGSKDSCKGDSGGPHATHYRGTWYLTGIVSWGQGCATVGHFGVYTRVSQYIEWLQKLMRSEPRPGVLLRAPFPGSPGTSESATPESGPGSEPATSGSETPGTSESATPESGPGSEPATSGSETPGTSESATPESGPGTSTEPSEGSAPGSPAGSPTSTEEGTSESATPESGPGSEPATSGSETPGTSESATPESGPGSPAGSPTSTEEGSPAGSPTSTEEGTSTEPSEGSAPGTSESATPESGPGTSESATPESGPGTSESATPESGPGSEPATSGSETPGSEPATSGSETPGSPAGSPTSTEEGTSTEPSEGSAPGTSTEPSEGSAPGSEPATSGSETPGTSESATPESGPGTSTEPSEGSAPGSSS | 650 | 8.5 | 8.2 | – | – | – | – |
| pBC0114: base construct expressing BDD FVIII, pcDNA4-FVIII_4-…-Myc-SPATG-His, lacking XTEN insertions (protein, Myc and His tags) MQIELSTCFFLCLLRFCFSATRRYYLGAVELSWDYMQSDLGELPVDARFPPRVPKSFPFNTSVVYKKTLFVEFTDHLFNIAKPRPPWMGLLGPTIQAEVYDTVVITLKNMASHPVSLHAVGVSYWKASEGAEYDDQTSQREKEDDKVFPGGSHTYVWQVLKENGPMASDPLCLTYSYLSHVDLVKDLNSGLIGALLVCREGSLAKEKTQTLHKFILLFAVFDEGKSWHSETKNSLMQDRDAASARAWPKMHTVNGYVNRSLPGLIGCHRKSVYWHVIGMGTTPEVHSIFLEGHTFLVRNHRQASLEISPITFLTAQTLLMDLGQFLLFCHISSHQHDGMEAYVKVDSCPEEPQLRMKNNEEAEDYDDDLTDSEMDVVRFDDDNSPSFIQI | – | – | – | 5000 | 3.0 | – | – |
| pBC 0114 (protein) MQIELSTCFFLCLLRFCFSATRRYYLGAVELSWDYMQSDLGELPVDARFPPRVPKSFPFNTSVVYKKTLFVEFTDHLFNIAKPRPPWMGLLGPTIQAEVYDTVVITLKNMASHPVSLHAVGVSYWKASEGAEYDDQTSQREKEDDKVFPGGSHTYVWQVLKENGPMASDPLCLTYSYLSHVDLVKDLNSGLIGALLVCREGSLAKEKTQTLHKFILLFAVFDEGKSWHSETKNSLMQDRDAASARAWPKMHTVNGYVNRSLPGLIGCHRKSVYWHVIGMGTTPEVHSIFLEGHTFLVRNHRQASLEISPITFLTAQTLLMDLGQFLLFCHISSHQHDGMEAYVKVDSCPEEPQLRMKNNEEAEDYDDDLTDSEMDVVRFDDDNSPSFIQI | – | – | – | – | – | 6.68 | 7.61 |
